{"source": "patent US20020131970A1", "about": "(Scripps Research, published 2002)", "key": {"[1]": {"target": "recombinant ICAM-1 on the surface of transfected fibroblast-like (COS) cells of Example 4 (human) (UniProt P05362)", "sequence (P05362 28-532)": "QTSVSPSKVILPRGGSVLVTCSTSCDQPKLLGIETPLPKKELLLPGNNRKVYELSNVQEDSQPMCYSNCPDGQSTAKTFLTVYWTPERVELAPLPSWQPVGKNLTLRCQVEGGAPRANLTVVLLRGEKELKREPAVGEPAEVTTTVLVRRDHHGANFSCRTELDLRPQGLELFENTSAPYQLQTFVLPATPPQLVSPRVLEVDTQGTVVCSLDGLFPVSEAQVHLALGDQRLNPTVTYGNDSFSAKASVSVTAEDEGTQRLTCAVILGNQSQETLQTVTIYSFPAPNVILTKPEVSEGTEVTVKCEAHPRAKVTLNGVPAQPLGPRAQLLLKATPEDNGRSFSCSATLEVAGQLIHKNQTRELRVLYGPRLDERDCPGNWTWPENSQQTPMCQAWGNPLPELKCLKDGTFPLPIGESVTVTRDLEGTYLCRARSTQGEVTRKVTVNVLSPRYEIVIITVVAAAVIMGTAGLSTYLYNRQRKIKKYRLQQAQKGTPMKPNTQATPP", "experiment": "125I-D30 on ICAM-1 transfected cells, with MnCl2, no inhibitor"}, "[2]": {"target": "intercellular adhesion molecule 1 (ICAM-1), the RGD-independent fibrinogen receptor, native, on the surface of cells (HUVEC, JY lymphocytes) (human) (UniProt P05362)", "sequence (P05362 28-532)": "as above", "experiment": "125I-D30 at 10 µg/ml on HUVEC monolayers"}, "[3]": {"target": "recombinant ICAM-1 on the surface of transfected fibroblast-like (COS) cells of Example 4 (human) (UniProt P05362)", "experiment": "125I-D30 on ICAM-1 transfected cells, with CaCl2, no inhibitor"}, "[4]": {"target": "T1, intercellular adhesion molecule 1 (ICAM-1), the RGD-independent fibrinogen receptor, native, on the surface … (human, UniProt P05362 28-532)", "T1 construct": "whole, on cells; assays on HUVEC monolayers are written against this molecule; also called ECR; endothelial cell receptor", "T1 sequence (P05362 28-532)": "as above", "experiment": "adhesion of 51Cr-labelled ICAM-1+ JY lymphocytes to peptide-coated wells"}, "[5]": {"target": "T1, intercellular adhesion molecule 1 …", "experiment": "adhesion of 51Cr-labelled ICAM-1+ JY lymphocytes to wells coated with 1-100 µg/ml peptide", "method": "Serum-free suspensions of JY lymphocytes were labeled with 0.5 mCi ⁵¹Cr (Na₂CrO₄, specific activity 487.4 mCi/mg, E. I., DuPont de Nemours, Wilmington, Del.) for 2 h at 37° C., with a final incorporation of 0.2-4 cpm/cell (Languino, et al., supra). Aliquots of ⁵¹Cr-labeled JY lymphocytes at 1×10⁶/ml were added to peptide-coated wells for 45 min at 37° C., washed, solubilized in 20% SDS, and radioactivity associated under the various conditions was determined in a scintillation beta-counter. The number of attached cells was quantitated by dividing the cpm harvested by the cpm/cell. Data are the mean ± S.D. of two independent experiments.\nThe specific binding of radiolabelled ICAM-1⁺ JY lymphocytes to increasing concentrations of γ3 was measured to characterize the ICAM-1 binding site. The number of attached cells is plotted on the Y-axis against peptide concentration (μg/ml) plotted on the X-axis."}}}
{"molecule": "D30 fragment of fibrinogen (30 kD plasmin digestion product of fragment D) (from UniProt P02671 155-225; P02675 164-250)", "values": [{"measurement": "cpm bound", "setting": "[1]", "result": 7500, "unit": "cpm"}, {"measurement": "cpm bound", "setting": "[2]", "result": 60000, "unit": "cpm"}, {"measurement": "cpm bound", "setting": "[3]", "result": 3000, "unit": "cpm"}]}
{"molecule": "LGGAKQAGDV (also called control peptide L10; irrelevant polypeptide L10)", "note": "[polypeptide L10, fibrinogen γ chain residues 402-411]", "values": [{"measurement": "binding result", "setting": "[4]", "result": "no binding (tested: 1-100 µg/ml coating)"}]}
{"molecule": "NNQKIVNLKEKVAQLEA (Coated on plates in the JY adhesion assays; also called γ3 polypeptide; unlabeled γ3 peptide)", "note": "[polypeptide γ3, fibrinogen γ chain residues 117-133]", "values": [{"measurement": "binding result", "setting": "[5]", "result": "binds"}]}
